# Measurements as given in IntAct's records for PubMed 21685921.
# B1: Regulator of G-protein signaling 4 (Homo sapiens), P49798 (parent)
# chain: MCKGLAGLPASCLRSAKDMKHRLGFLLQKSDSCEHNSSHNKKDKVVICQRVSQEEVKKWAESLENLISHECGLAAFKAFLKSEYSEENIDFWISCEEYKKIKSPSKLSPKAKKIYNEFISVQATKEVNLDSCTREETSRNMLEPTITCFDEAQKKIFNLMEKDSYRRFLKSRFYLDLVNPSSCGAEKQKGAKSSADCASLVPQCA
# B2: Regulator of G-protein signaling 17 (Homo sapiens), Q9UGC6 (parent)
# chain: MRKRQQSQNEGTPAVSQAPGNQRPNNTCCFCWCCCCSCSCLTVRNEERGENAGRPTHTTKMESIQVLEECQNPTAEEVLSWSQNFDKMMKAPAGRNLFREFLRTEYSEENLLFWLACEDLKKEQNKKVIEEKARMIYEDYISILSPKEVSLDSRVREVINRNLLDPNPHMYEDAQLQIYTLMHRDSFPRFLNSQIYKSFVESTAGSSSES
# B3: Regulator of G-protein signaling 16 (Homo sapiens), O15492 (parent)
# chain: MCRTLAAFPTTCLERAKEFKTRLGIFLHKSELGCDTGSTGKFEWGSKHSKENRNFSEDVLGWRESFDLLLSSKNGVAAFHAFLKTEFSEENLEFWLACEEFKKIRSATKLASRAHQIFEEFICSEAPKEVNIDHETHELTRMNLQTATATCFDAAQGKTRTLMEKDSYPRFLKSPAYRDLAAQASAASATLSSCSLDEPSHT
# B4: Regulator of G-protein signaling 18 (Homo sapiens), Q9NS28 (parent)
# chain: METTLLFFSQINMCESKEKTFFKLIHGSGKEETSKEAKIRAKEKRNRLSLLVQKPEFHEDTRSSRSGHLAKETRVSPEEAVKWGESFDKLLSHRDGLEAFTRFLKTEFSEENIEFWIACEDFKKSKGPQQIHLKAKAIYEKFIQTDAPKEVNLDFHTKEVITNSITQPTLHSFDAAQSRVYQLMEQDSYTRFLKSDIYLDLMEGRPQRPTNLRRRSRSFTCNEFQDVQSDVAIWL
# Variants of: B1
# Conditions: with gnao_rat Gnao1, P59215
# gnao_rat Gnao1, P59215, sequence (P59215 whole entry): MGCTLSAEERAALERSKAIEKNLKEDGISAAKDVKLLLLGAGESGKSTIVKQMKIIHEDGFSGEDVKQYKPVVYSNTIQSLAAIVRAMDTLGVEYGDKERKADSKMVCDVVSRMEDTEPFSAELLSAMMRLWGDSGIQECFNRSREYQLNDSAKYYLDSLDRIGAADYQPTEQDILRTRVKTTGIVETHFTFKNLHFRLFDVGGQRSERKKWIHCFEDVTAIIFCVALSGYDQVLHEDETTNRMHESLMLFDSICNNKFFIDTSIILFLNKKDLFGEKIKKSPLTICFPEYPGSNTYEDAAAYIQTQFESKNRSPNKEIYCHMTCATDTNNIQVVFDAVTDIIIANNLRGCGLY
row,effect of a mutation on the interaction,Variant
1,disrupting interaction,N128S
2,disrupting interaction,E126A;R134A;R166A
3,decreasing interaction,R134A
4,decreasing interaction,R134A;R166A

# Variants of: B2
# Conditions: with gnao_rat Gnao1, P59215
row,effect of a mutation on the interaction,Variant
1,increasing interaction,I143S;L144E;S145A;S150N;N192K
2,increasing interaction,I143S;L144E;S145A;S150N;H183E;R184K;N192K

# Variants of: B3
# Conditions: with gnao_rat Gnao1, P59215
row,effect of a mutation on the interaction,Variant
1,decreasing interaction,E125A;E129A;K173A
2,decreasing interaction,E129A
3,decreasing interaction,E125A;E129A
4,decreasing interaction,E90A

# Variants of: B4
# Conditions: with gnao_rat Gnao1, P59215
row,effect of a mutation on the interaction,Variant
1,increasing interaction,K141E;H156E;K158R
2,increasing interaction,Q186K
3,increasing interaction,H156E;K158R
4,increasing interaction,K141E;H156E;K158R;Q186K
